Laboratory results taken from patent publication US20190211359A1 (INSTITUTE FOR CANCER RESEARCH D B A THE RESEARCH INSTITUTE …, published 2019).

Experiments:
[1] = target: T1, receptor-interacting serine/threonine-protein kinase 3 (RIPK3), murine (mouse, UniProt Q9QZL0 1-486); assay: RIPK3 immunoprecipitated from PR8-infected wild-type MEFs, immunoblot for DAI (FIG. 13A); also seen with re-expressed wild type DAI (FIG. 13D)
T1 construct: Endogenous protein of MEFs, pulled down with anti-RIPK3 antibody; also called RIP3
Protocol: FIGS. 13A through 13F show DAI is required for IAV induced formation of RIPK3-containing necrosome complex. […] In parallel, wild-type (WT), zbp1^{-/-}, and ripk3^{-/-} MEFs were treated with […] and phosphorylated MLKL. […] In parallel, reconstituted cells were treated with TCZ and examined for expression of phosphorylated p MLKL. […] Whole-cell extract (5% input) was examined in parallel for RIPK3, DAI and IAV NS1 proteins.

[2] = target: T1, receptor-interacting …; assay: anti-RIPK3 immunoprecipitation from PR8-infected reconstituted zbp1-/- MEFs, immunoblot (FIG. 13D)

T1 sequence (Q9QZL0 whole entry): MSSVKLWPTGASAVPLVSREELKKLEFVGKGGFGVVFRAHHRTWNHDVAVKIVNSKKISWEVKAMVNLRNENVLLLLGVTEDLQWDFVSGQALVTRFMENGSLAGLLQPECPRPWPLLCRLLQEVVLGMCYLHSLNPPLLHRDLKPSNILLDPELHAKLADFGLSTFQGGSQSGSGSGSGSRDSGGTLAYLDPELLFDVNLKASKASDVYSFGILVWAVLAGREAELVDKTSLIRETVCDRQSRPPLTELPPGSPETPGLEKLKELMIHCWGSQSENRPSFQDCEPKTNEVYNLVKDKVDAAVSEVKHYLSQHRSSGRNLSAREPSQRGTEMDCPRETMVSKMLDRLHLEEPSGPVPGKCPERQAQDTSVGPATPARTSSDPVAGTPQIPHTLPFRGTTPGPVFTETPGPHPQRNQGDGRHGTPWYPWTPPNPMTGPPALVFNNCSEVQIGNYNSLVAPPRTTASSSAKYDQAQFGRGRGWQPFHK

B1: DNA-dependent activator of interferon-regulatory factors (DAI), wild-type full-length murine (other, mouse, UniProt Q9QY24 1-411, looked up)
chain: MAEAPVDLSTGDNLEQKILQVLSDDGGPVKIGQLVKKCQVPKKTLNQVLYRLKKEDRVSSPEPATWSIGGAASGDGAPAIPENSSAQPSLDERILRFLEANGPHRALHIAKALGMTTAKEVNPLLYSMRNKHLLSYDGQTWKIYHSRQEGQDIAHSGVTQESPAIICQHNPVNMICQQGANSHISIANSNAIQIGHGNVIVREKACGEPGPRTSHPLPLAWDASAQDMPPVAHGAQYIYMDKSLLQQVQLGHHNEMSLVGDAGKHPSYSFSDSPPEVSTTTADPGASFNMQTFEPGPHPEGDTVQTVHIKSCFLEDATIGNGNKMTIHLRSKGEVMESGDSEEPKKEDTGTSSEATPPRSCQHTPSDSMLPTSELRAMALGDSSPQTTEPVLREHEVQDIESSQDTGLSKQ
notes: also called ZBP1; DLM-1
binding result [1]: binds

B2: murine DAI with mutant RHIM domain (amino acids 192-195 IQIG to AAAA) (other, mouse, UniProt Q9QY24 1-411, looked up)
chain: MAEAPVDLSTGDNLEQKILQVLSDDGGPVKIGQLVKKCQVPKKTLNQVLYRLKKEDRVSSPEPATWSIGGAASGDGAPAIPENSSAQPSLDERILRFLEANGPHRALHIAKALGMTTAKEVNPLLYSMRNKHLLSYDGQTWKIYHSRQEGQDIAHSGVTQESPAIICQHNPVNMICQQGANSHISIANSNAAAAAHGNVIVREKACGEPGPRTSHPLPLAWDASAQDMPPVAHGAQYIYMDKSLLQQVQLGHHNEMSLVGDAGKHPSYSFSDSPPEVSTTTADPGASFNMQTFEPGPHPEGDTVQTVHIKSCFLEDATIGNGNKMTIHLRSKGEVMESGDSEEPKKEDTGTSSEATPPRSCQHTPSDSMLPTSELRAMALGDSSPQTTEPVLREHEVQDIESSQDTGLSKQ
notes: also called DAI mutRHIM
binding result [2]: no binding
